Experimental findings from US6140052, “cMYC is regulated by Tcf-4” (The Johns Hopkins University, dated 1998) are described below.

Experiment [1] deals with Myc-tagged hTcf-4 (epitope-tagged hTcf-4 in expression vector pCDNA) (human).
The target of experiment [2] is T1, hTcf-4 (endogenous, in nuclear extracts or cells) (human).
T1 chain: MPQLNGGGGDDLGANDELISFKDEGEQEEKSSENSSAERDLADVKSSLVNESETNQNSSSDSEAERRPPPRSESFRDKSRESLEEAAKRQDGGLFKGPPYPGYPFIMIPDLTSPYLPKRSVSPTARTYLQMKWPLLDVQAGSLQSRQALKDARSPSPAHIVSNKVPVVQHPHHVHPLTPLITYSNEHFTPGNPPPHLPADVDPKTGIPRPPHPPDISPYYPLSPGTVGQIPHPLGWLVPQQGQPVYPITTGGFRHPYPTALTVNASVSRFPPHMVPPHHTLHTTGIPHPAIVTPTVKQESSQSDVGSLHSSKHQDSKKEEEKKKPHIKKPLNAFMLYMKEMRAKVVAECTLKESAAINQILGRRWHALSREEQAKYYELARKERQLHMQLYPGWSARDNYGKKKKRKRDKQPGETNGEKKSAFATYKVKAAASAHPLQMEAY
As to the kind of experiment: gel retardation of nuclear extracts of HT29-APC1 cells after 20 h Zn++ induction of APC. Here is the method: Figure 2C: Figure 4: FIG. 4. Constitutive presence of β-catenin-hTcf-4 complexes in APC^{-/-} cells. Gel retardation assays were performed on nuclear extracts from the indicated cell lines before and after a 20-hour exposure to Zn^++. Samples in lanes 1, 4, 7, 10 were incubated under standard conditions. To the samples in lanes 2, 5, 8, 11, 0.25 μg, anti β-catenin was added. To the samples in lanes 3, 6, 9, 12, 0.25 μg of a control (human CD4) antibody was added. N.S., nonspecific band also observed with mutant (nonbinding) probe (lane Mt).
Gel retardation assays were performed as described elsewhere (7). Extracts were prepared from intact nuclei that were washed four times to avoid contamination with cytoplasmic β-catenin. As the optimal Tcf/Lef probe, we used a double-stranded 15-mer […] (SEQ ID NO: 12); the control probe was […] (SEQ ID NO:13). (All oligonudeotides were from Isogene, Holland). The β-catenin antibody was purchased from Transduction Laboratories (Lexington, Ky.). A typical binding reaction contained 3 μg nuclear protein, 0.1 ng radiolabeled probe, 100 ng of dIdC, in 25 μl of binding buffer (60 mm KCl, 1 mM EDTA, 1 mM DTT, 10% glycerol). Samples were incubated for 20 min at room temperature, antibody was added, and the samples incubated 20 min further.

In experiment [1], “β-Cat S33Y (mutant β-catenin from SW48) (from UniProt P35222)” yielded a CRT reporter activity in 293 cells cotransfected with a Tcf-4 expression vector of 6 fold. Molecule “β-Cat Δ45 (mutant β-catenin from HCT116, deletion of Ser-45) (from UniProt P35222)” showed a CRT reporter activity in 293 cells cotransfected with a Tcf-4 expression vector in experiment [1] of 6 fold.

B1: β-catenin (endogenous, human colorectal cancer cell lines HT29, SW480) (other)
chain: ATQADLMELDMAMEPDRKAAVSHWQQQSYLDSGIHSGATTTAPSLSGKGNPEEEDVDTSQVLYEWEQGFSQSFTQEQVADIDGQYAMTRAQRVRAAMFPETLDEGMQIPSTQFDAAHPTNVQRLAEPSQMLKHAVVNLINYQDDAELATRAIPELTKLLNDEDQVVVNKAAVMVHQLSKKEASRHAIMRSPQMVSAIVRTMQNTNDVETARCTAGTLHNLSHHREGLLAIFKSGGIPALVKMLGSPVDSVLFYAITTLHNLLLHQEGAKMAVRLAGGLQKMVALLNKTNVKFLAITTDCLQILAYGNQESKLIILASGGPQALVNIMRTYTYEKLLWTTSRVLKVLSVCSSNKPAIVEAGGMQALGLHLTDPSQRLVQNCLWTLRNLSDAATKQEGMEGLLGTLVQLLGSDDINVVTCAAGILSNLTCNNYKNKMMVCQVGGIEALVRTVLRAGDREDITEPAICALRHLTSRHQEAEMAQNAVRLHYGLPVVVKLLHPPSHWPLIKATVGLIRNLALCPANHAPLREQGAIPRLVQLLVRAHQDTQRRTSMGGTQQQFVEGVRMEEIVEGCTGALHILARDVHNRIVIRGLNTIPLFVQLLYSPIENIQRVAAGVLCELAQDKEAAEAIEAEGATAPLTELLHSRNEGVATYAAAVLFRMSEDKPQDYKKRLSVELTSSLFRTEPMAWNETADLGLDIGAQGEPLGYRQDDPSYRSFHSGGYGQDALGMDPMMEHEMGGHHPGADYPVDGLPDLGHAQDLMDGLPPGDSNQLAWFDTDL
Consider B1, for which, in experiment [2], the “decrease of the complex relative to uncomplexed hTcf-4 after Zn++ induction of APC” value stood at 6 fold.
